According to the Immune Epitope Database (IEDB):

molecular target: HLA-B*53:01; assay: IEDB peptide-MHC binding, purified MHC/competitive/radioactivity; ≥ and ≤ were set here for values at or beyond the usual limits of such assays; details: source organism: Bordetella pertussis

Row | Sequence | IC50 [µM]
1 | ETFCITTIY | 31.1
2 | MAAESTFES | 24.1
3 | MATKGEMQI | 58

molecular target: HLA-B*35:01; assay: as above; details: source organism: Bordetella pertussis

Row | Sequence | IC50 [µM]
4 | ETFCITTIY | 15.8
5 | GKDLKRPGS | 69.9
6 | QVGSSNSAF | 69.9
7 | VHVSKEEQY | 69.9

molecular target: HLA-B*07:02; assay: as above; details: source organism: Bordetella pertussis

Row | Sequence | IC50 [µM]
8 | FVRSGQPVI | 17.6
9 | GPPSRPTTP | 69.6
10 | GPSAVAAPA | 0.624
11 | PPKPAPVAK | ≥ 77.5

molecular target: HLA-B*44:03; assay: as above; details: source organism: Bordetella pertussis

Row | Sequence | IC50 [µM]
12 | AAVALLNKL | 0.672
13 | AQITSYVGF | 2.12

molecular target: HLA-A*02:01; assay: as above; details: source organism: Bordetella pertussis

Row | Sequence | IC50 [µM]
14 | GVAPTAQQL | 69.4
15 | VLVKTNMVV | 11.4
16 | YMIYMSGLA | 0.407

molecular target: HLA-B*57:01; assay: as above; details: source organism: Bordetella pertussis

Row | Sequence | IC50 [µM]
17 | AVLVNPHIF | 33.3
18 | DDEVDVSGR | ≥ 70.4
19 | ITVTSRGGF | 0.773
20 | TTLGLEQTF | 4.77
